Tested on: MS2 coat protein
Experiment: apparent KD of MS2 coat protein; designed switch direction (-1 OFF switch, 1 ON switch): -1; higher = weaker reporter binding
How it was run: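 Normalised cluster fluorescence was curve-fitted, and each design's median over clusters is its apparent KD. Before this, SNAP-549-labelled MS2 coat protein was titrated from 0.7 or 1.5 nM, doubling to 3 µM, over RNA switches transcribed on Illumina chips by stalled E. coli RNA polymerase. Titrations had no input, 200 uM small-molecule ligand, or an oligonucleotide input, and steps lasted 0.8–1.5 h (lowest) to 10–20 min (highest).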

[1] = Eterna round: R95, input ligand: microRNA oligo, concentration not stated
[2] = input ligand: microRNA oligo, concentration not stated

GAUAAGCUAGGAUAUACAUAUUAUUUAAUAUCCUCAUUAAUACAUGAGGAUCACCCAUGUAGAAGGAGCAAUAG [Mat - Exclusion 2 - Mod of Hog - D90] (puzzle: Exclusion 2)
apparent KD of MS2 coat protein [1]: 108 nM

GCGCCAUCGUGAGAUGGCGUAAGUACAUGAGGAUCACCCAUGUAGGAUAUCGAUUGCUUUGCAGUCGAGAAGGGCGUGAUAAGU [JL ENG3 3.81] (Eterna round: R96, puzzle: Exclusion NG 3)
apparent KD of MS2 coat protein (input ligand: FMN 200 uM): 97.3 nM | apparent KD of MS2 coat protein [2]: 64.1 nM | apparent KD of MS2 coat protein (input ligand: none): 76.9 nM

AAAUAACAAGCAAAAAACCACAUGAGGAUCACCCAUGUAAAGGGUGAAGUUCGCACCCAAAAAUAAAAUAAAAAAUA [Mat - Sensor v2 - Eli mod - 173] (Eterna round: R96, puzzle: Sensor v2, turn-off variant)
apparent KD of MS2 coat protein (input ligand: FMN 200 uM): 29.1 nM | apparent KD of MS2 coat protein [2]: 75 nM | apparent KD of MS2 coat protein (input ligand: none): 28.3 nM

GCAGCAACUCUAAUCAAACUAACAUGAGGAUCACCCAUGUCUCAGGAUAUGGUCUGGAUUACAGGCCAGAAGGGAGAAAGCUGC [Eli exng3 - 049] (Eterna round: R96, puzzle: Exclusion NG 3)
apparent KD of MS2 coat protein (input ligand: FMN 200 uM): 9.04 nM | apparent KD of MS2 coat protein [2]: 10.4 nM | apparent KD of MS2 coat protein (input ligand: none): 14.8 nM

UCUGGUCGAGGAUAUACAUGAGGAUCACCCAUGUAGAUCAACCAGCUUCGGCUGGAAUGUAGAAGGCGACCAGA [E3/5-A6] (Eterna round: R97, puzzle: Exclusion 3)
apparent KD of MS2 coat protein (input ligand: FMN 200 uM): 149 nM | apparent KD of MS2 coat protein (input ligand: none): 19.8 nM

ACCUCACAUGAGGAUCACCCAUGUUAGGAUAUCUCGAUGCUCCACGGGCGGUAGCAUCAGAGAAGGAACGUGCU [Vematior] (puzzle: Exclusion 1)
apparent KD of MS2 coat protein [1]: 19 nM

UAUUAGCAAGCAACUGGGUACAUGAGGAUCACCCAUGUGCUCGUCUUAUAAGGUACUGUGACGAAAGUCACGGUACC [mod--Eli] (Eterna round: R97, puzzle: Sensor, turn-off variant 1)
apparent KD of MS2 coat protein (input ligand: FMN 200 uM): 17.4 nM | apparent KD of MS2 coat protein (input ligand: none): 16.6 nM

GAGUGACAUGAGGAUCACCCAUGUGAGGAUAUCGGACGGACCAAAUUAACAAUAUUUGCGAGAAGGCACAUCGG [Exclusion 1 V17] (puzzle: Exclusion 1)
apparent KD of MS2 coat protein [1]: 82.2 nM

GGAUUACGAGGAUAUCGAUUUUAGUACAUGAGGAUCACCCAUGUUGUCCAGGUCUCGUUUCGAGAAGGCGUGAUUC [LRO-Ex5-06] (puzzle: Exclusion 5)
apparent KD of MS2 coat protein [1]: 58.4 nM

AUGUUGCGAGGAUAUAUAAGGGUAUAUUCUUAAGAUAUGGAACAUGAGGAUCACCCAUGUAGAAGGUGCAUAAC [JR_Ex2_Sub043] (Eterna round: R97, puzzle: Exclusion 2)
apparent KD of MS2 coat protein (input ligand: FMN 200 uM): 79.1 nM | apparent KD of MS2 coat protein (input ligand: none): 73 nM

GUUAACGAUGAGGAUAUAUGAUAUCAAAGCAUCAUAGAAGGCAUCACAUGAGGAUCACCCAUGUGAUCUUCUUU [jl-ex6-4.10 ViennaUCT mod] (Eterna round: R97, puzzle: Exclusion 6)
apparent KD of MS2 coat protein (input ligand: FMN 200 uM): 83.6 nM | apparent KD of MS2 coat protein (input ligand: none): 15.2 nM

AUUUAAUUUAAUAAGAUCACAUGAGGAUCACCCAUGUAUAUAUAGGAUAUCAGCUCGUUUAGAGCUGAGAAGGAUAUAUACUAU [ExNG3/7-B2] (Eterna round: R96, puzzle: Exclusion NG 3)
apparent KD of MS2 coat protein (input ligand: FMN 200 uM): 190 nM | apparent KD of MS2 coat protein [2]: 237 nM | apparent KD of MS2 coat protein (input ligand: none): 278 nM

AACAAGCUUUUUUGAUGAAUGAUAGUAGGUAGCUCCUUUACAUGAGGAUCACCCAUGUUUGUGUAGCUCGAUCUUUU [JR_SV3TOV2_Sub077] (puzzle: Sensor v3, turn-off variant 2)
apparent KD of MS2 coat protein (Eterna round: R95, input ligand: FMN 200 uM): 12.7 nM | apparent KD of MS2 coat protein [1]: 16.2 nM | apparent KD of MS2 coat protein (Eterna round: R95, input ligand: none): 12.1 nM

ACUCAGUGAGGAUAUCGCCAGAGAGCCGUGACGGCUCCUGAUGAGAAGGCACAUGAGGAUCACCCAUGUAAGCA [EX4 C.7] (Eterna round: R97, puzzle: Exclusion 4)
apparent KD of MS2 coat protein (input ligand: FMN 200 uM): 204 nM | apparent KD of MS2 coat protein (input ligand: none): 134 nM

UAUUAAACAAGCAGGUCCCACAUGAGGAUCACCCAUGUGCUCGUCUUAUAACGAUCUGUGGGAAAACCUACGGAUCG [Elimod 18 - Jieux - Sensor, turn-off variant 1] (Eterna round: R97, puzzle: Sensor, turn-off variant 1)
apparent KD of MS2 coat protein (input ligand: FMN 200 uM): 37.7 nM | apparent KD of MS2 coat protein (input ligand: none): 45.1 nM

ACAUGAGGAUCACCCAUGUUUGGUUGGUUUUCUCCGGCUGUUGAGGAUAUAGUCCGGUAUCCGCGCUAGAAGGUGAGGGUUGGC [Aenatbe mod 8] (Eterna round: R96, puzzle: Exclusion NG 3)
apparent KD of MS2 coat protein (input ligand: FMN 200 uM): 123 nM | apparent KD of MS2 coat protein [2]: 123 nM | apparent KD of MS2 coat protein (input ligand: none): 131 nM

GCGCCAUCGUGAGAUGGCGUAACUACAUGAGGAUCACCCAUGUAGGAUAUCGAUUGCUUUGCAGUCGAGAAGGGCAAGGGAUAU [JL ENG3 3.87] (Eterna round: R96, puzzle: Exclusion NG 3)
apparent KD of MS2 coat protein (input ligand: FMN 200 uM): 15.3 nM | apparent KD of MS2 coat protein [2]: 13.5 nM | apparent KD of MS2 coat protein (input ligand: none): 16.9 nM
